T1: Amylin (islet amyloid polypeptide, IAPP), P10997
T1 chain: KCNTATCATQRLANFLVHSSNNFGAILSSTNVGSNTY

B1: purified human BChE (butyrylcholinesterase, from human serum; Sigma) (protein)
chain: EDDIIIATKNGKVRGMNLTVFGGTVTAFLGIPYAQPPLGRLRFKKPQSLTKWSDIWNATKYANSCCQNIDQSFPGFHGSEMWNPNTDLSEDCLYLNVWIPAPKPKNATVLIWIYGGGFQTGTSSLHVYDGKFLARVERVIVVSMNYRVGALGFLALPGNPEAPGNMGLFDQQLALQWVQKNIAAFGGNPKSVTLFGESAGAASVSLHLLSPGSHSLFTRAILQSGSFNAPWAVTSLYEARNRTLNLAKLTGCSRENETEIIKCLRNKDPQEILLNEAFVVPYGTPLSVNFGPTVDGDFLTDMPDILLELGQFKKTQILVGVNKDEGTAFLVYGAPGFSKDNNSIITRKEFQEGLKIFFPGVSEFGKESILFHYTDWVDDQRPENYREALGDVVGDYNFICPALEFTKKFSEWGNNAFFYYFEHRSSKLPWPEWMGVMHGYEIEFVFGLPLERRDNYTKAEEILSRSIVKRWANFAKYGNPNETQNNSTSWPVFKSTEQKYLTLNTESTRIMTKLRAQQCRFWTSFFPKVLEMTGNIDEAEWEWKAGFHRWNNYMMDWKNQFNDYTSKKESCVGL
B2: recombinant human AChE-S (synaptic acetylcholinesterase) (protein)
chain: EGREDAELLVTVRGGRLRGIRLKTPGGPVSAFLGIPFAEPPMGPRRFLPPEPKQPWSGVVDATTFQSVCYQYVDTLYPGFEGTEMWNPNRELSEDCLYLNVWTPYPRPTSPTPVLVWIYGGGFYSGASSLDVYDGRFLVQAERTVLVSMNYRVGAFGFLALPGSREAPGNVGLLDQRLALQWVQENVAAFGGDPTSVTLFGESAGAASVGMHLLSPPSRGLFHRAVLQSGAPNGPWATVGMGEARRRATQLAHLVGCPPGGTGGNDTELVACLRTRPAQVLVNHEWHVLPQESVFRFSFVPVVDGDFLSDTPEALINAGDFHGLQVLVGVVKDEGSYFLVYGAPGFSKDNESLISRAEFLAGVRVGVPQVSDLAAEAVVLHYTDWLHPEDPARLREALSDVVGDHNVVCPVAQLAGRLAAQGARVYAYVFEHRASTLSWPLWMGVPHGYEIEFIFGIPLDPSRNYTAEEKIFAQRLMRYWANFARTGDPNEPRDPKAPQWPPYTAGAQQYVSLDLRPLEVRRGLRAQACAFWNRFLPKLLSATDTLDEAERQWKAEFHRWSSYMVHWKNQFDHYSKQDRCSDL

Key:
[1] = target: T1, Amylin (islet amyloid polypeptide, …)
[2] = target: synthetic Aβ (1-40) peptide (Biosource), P05067
Sequence of synthetic Aβ (1-40) peptide (Biosource), P05067 (P05067 whole entry, looked up, tested part not stated): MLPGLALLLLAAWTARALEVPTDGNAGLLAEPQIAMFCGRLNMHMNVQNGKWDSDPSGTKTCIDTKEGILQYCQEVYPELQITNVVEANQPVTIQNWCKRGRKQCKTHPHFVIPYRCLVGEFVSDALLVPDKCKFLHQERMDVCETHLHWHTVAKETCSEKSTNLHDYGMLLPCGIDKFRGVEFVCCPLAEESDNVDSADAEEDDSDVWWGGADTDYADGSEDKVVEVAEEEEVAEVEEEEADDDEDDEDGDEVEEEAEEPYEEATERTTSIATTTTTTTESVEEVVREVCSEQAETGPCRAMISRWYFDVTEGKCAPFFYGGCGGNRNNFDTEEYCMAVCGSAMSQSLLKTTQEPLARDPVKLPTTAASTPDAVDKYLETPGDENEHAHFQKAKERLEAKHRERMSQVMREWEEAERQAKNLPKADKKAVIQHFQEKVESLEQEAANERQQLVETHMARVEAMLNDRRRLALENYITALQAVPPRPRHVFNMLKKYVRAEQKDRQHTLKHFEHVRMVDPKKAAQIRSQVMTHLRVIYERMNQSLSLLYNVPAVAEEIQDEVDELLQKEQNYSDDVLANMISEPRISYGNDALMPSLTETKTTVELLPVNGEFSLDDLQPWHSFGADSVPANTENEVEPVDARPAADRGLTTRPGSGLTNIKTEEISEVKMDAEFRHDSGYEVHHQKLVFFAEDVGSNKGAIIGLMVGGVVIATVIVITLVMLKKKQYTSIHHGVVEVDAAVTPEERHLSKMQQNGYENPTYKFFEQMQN

Protein	lag time of amylin amyloid fibril formation with 0.24 µM BChE (30 minutes without) [1]	time for which amylin fibril formation was completely attenuated (20 µM amylin, 0.24 µM BChE, ThT fluorescence) [1]	Aβ fibril formation in a mix of 33 µM Aβ with 0.36 µM AChE-S and increasing doses of hBChE (ThT fluorescence) [2]	Lag (fold change) of Aβ fibrillation against no addition [2] [fold]	Lag (h) before onset of Aβ fibrillation [2] [h]	Rate (FU/h) of Aβ fibrillation, ThT fluorescence, BChE at 27.4 mg/L [2] [FU/h]	Rate (fold change) of Aβ fibrillation against no addition [2] [fold]	concentration needed for a complete attenuation of Aβ fibrillation (for 400 minutes) [2]	time for which Aβ fibril formation was totally prevented (0.4 µM BChE, 33 µM Aβ, ThT fluorescence) [2]	Lag (h) before onset of Aβ fibrillation (no addition: 4.0 ± 0.3) [2] [h]	Rate (FU/h) of Aβ fibrillation, ThT fluorescence, 33 µM Aβ, AChE-S at 25.8 mg/L (no addition: 3.4 ± 0.4) [2] [FU/h]
B1	increased the lag time of amyloid fibril formation from 30 minutes to 110 minutes	BChE completely attenuated the formation of amylin fibrils for 100 minutes	a dose-dependent interference with the fibril formation process was observed	1.4	5.6	1.1	0.3	as compared with 30 µg/ml of the complete BChE enzyme	addition of 0.4 µM BChE to 33 µM Aβ totally prevented fibril formation for over 600 minutes		
B2				0.6			2.1			2.5	7

Source: US20090169520
